For 83 variants, reverse-splicing fitness results are on record in the RNAGym collection of RNA variant scans (doi:10.1093/molbev/msab373).

The chains are these.
B1: Azoarcus group I ribozyme (parent)
chain: GUGCCUUGCGCCGGGAAACCACGCAAGGGAUGGUGUCAAAUUCGGCGAAACCUAAGCGCCCGCCCGGGCGUAUGGCAACGCCGAGCCAAGCUUCGGCGCCUGCGCCGAUGAAGGUGUAGAGACUAGACGGCACCCACCUAAGGCAAACGCUAUGGUGAAGGCAUAGUCCAGGGAGUGGCGAAAGUCACACAAACCGG

The series covers variants of B1. Description: reverse-splicing fitness (ratio to wild type); higher = more active; in vitro selection; Mg2+ level not given. The procedure, abridged: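 An in vitro group I ribozyme library with randomized positions was T7-transcribed and gel-purified. In triplicate, 10 pmol RNA in EPPS pH 7.5 was reacted with 50 pmoles of a 30-nt RNA substrate for 1 h at 37 °C across several added MgCl2 levels (1–48 mM), then stopped with EDTA. Products were reverse transcribed from a substrate-complementary primer, PCR-amplified and sequenced (HiSeq 4000). Fitness is a variant's read proportion after selection over that before, normalised to wild type.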
On to C82G A120C A145C C150G C169A U176C, for which the reverse-splicing fitness turned out to be 0.00752.

In the case of C82G A120C A145C C150G C169A U176A, the reverse-splicing fitness came to 0.0101.

Regarding C82G A120C A145C C150G C169A U176G, the reverse-splicing fitness came to 0.00496.

With C82G A111U A145C C150G C169U U176G, the reverse-splicing fitness was determined as 0.00634.

With C82G A111U A145C C150G C169U U176C, the reverse-splicing fitness is 0.0102.

For C82G A111U A145C C150G C169U U176A, the reverse-splicing fitness is 0.00891.

For the variant C82G A111U C150A C169G, the reverse-splicing fitness came out at 0.00899.

Turning to C82G A111U C150A C169U, the reverse-splicing fitness amounted to 0.0113.

In the case of C82G A111U C150A C169A, the reverse-splicing fitness worked out at 0.0114.

On to C82G A111U A145C U176C, for which the reverse-splicing fitness worked out at 0.224.

With C82G A111U A145C U176A, the reverse-splicing fitness came out at 0.19.

As to C82G A111U A145C U176G, the reverse-splicing fitness was determined as 0.0756.

For C82G A111U A145C C150G C169G U176A, the reverse-splicing fitness amounted to 0.00943.

Regarding C82G A111U A145C C150G C169G U176C, the reverse-splicing fitness amounted to 0.00772.

For the variant C82G A111U A145C C150G C169G U176G, the reverse-splicing fitness amounted to 0.00602.

With C82G A111U A120U U176G, the reverse-splicing fitness amounted to 0.00464.

Turning to C82G A111U A120U U176A, the reverse-splicing fitness amounted to 0.0109.

For the variant C82G A111U A120U U176C, the reverse-splicing fitness worked out at 0.0167.

Turning to C82G A111U A145G C150G U176A, the reverse-splicing fitness stood at 0.0137.

For C82G A111U A145G C150G U176G, the reverse-splicing fitness came out at 0.00893.

Consider C82G A111U A145G C150G U176C, for which the reverse-splicing fitness was determined as 0.0285.

As for C82G A111U C169U U176A, the reverse-splicing fitness was 0.0177.

Regarding C82G A111U C169U U176C, the reverse-splicing fitness came out at 0.0158.

C82G A111U C169U U176G: the reverse-splicing fitness was found to be 0.00639.

On to C82G A120C A145C C150G C169G U176G, for which the reverse-splicing fitness is 0.00536.

With C82G A120C A145C C150G C169G U176C, the reverse-splicing fitness came out at 0.00954.

Take C82G A120C A145C C150G C169G U176A: the reverse-splicing fitness is 0.0101.

As for C82G A111U A145C C169A U176G, the reverse-splicing fitness turned out to be 0.00501.

For the variant C82G A111U A145C C169A U176C, the reverse-splicing fitness was 0.00791.

With C82G A111U A145C C169A U176A, the reverse-splicing fitness came to 0.0121.

For C82G A111U A145G C150G C169U U176A, the reverse-splicing fitness was determined as 0.0125.

Turning to C82G A111U A145G C150G C169U U176C, the reverse-splicing fitness was 0.0134.

For C82G A111U A145G C150G C169U U176G, the reverse-splicing fitness is 0.00808.

For the variant C82G A111U A145C C150U C169U, the reverse-splicing fitness is 0.0104.

Consider C82G A111U A145C C150U C169G, for which the reverse-splicing fitness turned out to be 0.00762.

For C82G A111U A145C C150U C169A, the reverse-splicing fitness was determined as 0.00882.

In the case of C82G A111U A145C C150A C169A, the reverse-splicing fitness amounted to 0.00868.

For the variant C82G A111U A145C C150A C169G, the reverse-splicing fitness was determined as 0.00822.

For the variant C82G A111U A145C C150A C169U, the reverse-splicing fitness was 0.0105.

C82G A111U A145G C150U U176A: the reverse-splicing fitness came to 0.144.

As to C82G A111U A145G C150U U176G, the reverse-splicing fitness was determined as 0.0447.

For the variant C82G A111U A145G C150U U176C, the reverse-splicing fitness came out at 0.196.

C82G A120C A145C C150G C169U: the reverse-splicing fitness came to 0.0101.

With C82G A120C A145C C150G C169A, the reverse-splicing fitness was 0.00926.

Consider C82G A120C A145C C150G C169G, for which the reverse-splicing fitness stood at 0.00712.

For C82G A111U C150G U176C, the reverse-splicing fitness worked out at 0.0207.

C82G A111U C150G U176A: the reverse-splicing fitness is 0.01.

Turning to C82G A111U C150G U176G, the reverse-splicing fitness was found to be 0.0043.

On to C82G A111U A145G C150G C169A U176G, for which the reverse-splicing fitness amounted to 0.00877.

Turning to C82G A111U A145G C150G C169A U176A, the reverse-splicing fitness came to 0.0133.

Regarding C82G A111U A145G C150G C169A U176C, the reverse-splicing fitness turned out to be 0.0129.

Turning to C82G A111U A145G C169G U176A, the reverse-splicing fitness stood at 0.0187.

Consider C82G A111U A145G C169G U176G, for which the reverse-splicing fitness amounted to 0.00557.

For C82G A111U A145G C169G U176C, the reverse-splicing fitness amounted to 0.0258.

For C82G A111U C150G C169G, the reverse-splicing fitness worked out at 0.00744.

As to C82G A111U C150G C169A, the reverse-splicing fitness amounted to 0.0104.

Take C82G A111U C150G C169U: the reverse-splicing fitness was 0.0102.

Regarding C82G A111U A120U C150U C169G U176G, the reverse-splicing fitness was found to be 0.00236.

On to C82G A111U A120U C150U C169G U176C, for which the reverse-splicing fitness turned out to be 0.00433.

Consider C82G A111U A120U C150U C169G U176A, for which the reverse-splicing fitness amounted to 0.00881.

On to C82G A111U A145G C150A C169A, for which the reverse-splicing fitness was determined as 0.0112.

Regarding C82G A111U A145G C150A C169U, the reverse-splicing fitness came to 0.0113.

With C82G A111U A145G C150A C169G, the reverse-splicing fitness is 0.00989.

With C82G A111U A145U C169A U176C, the reverse-splicing fitness is 0.011.

Consider C82G A111U A145U C169A U176G, for which the reverse-splicing fitness was 0.00626.

Turning to C82G A111U A145U C169A U176A, the reverse-splicing fitness stood at 0.0121.

As to C82G A111U A145U C150A U176G, the reverse-splicing fitness stood at 0.0115.

C82G A111U A145U C150A U176C: the reverse-splicing fitness was determined as 0.0315.

On to C82G A111U A145U C150A U176A, for which the reverse-splicing fitness turned out to be 0.0235.

As to C82G A111U A120U C169A U176A, the reverse-splicing fitness worked out at 0.00362.

Take C82G A111U A120U C169A U176C: the reverse-splicing fitness worked out at 0.00299.

C82G A111U A120U C169A U176G: the reverse-splicing fitness was 0.00169.

As to C82G A111U A145U C150U U176G, the reverse-splicing fitness is 0.043.

As for C82G A111U A145U C150U U176C, the reverse-splicing fitness was 0.152.

For the variant C82G A111U A145U C150U U176A, the reverse-splicing fitness stood at 0.124.

As to C82G A111U A120U C169U U176C, the reverse-splicing fitness came to 0.00393.

As for C82G A111U A120U C169U U176A, the reverse-splicing fitness was 0.00485.

For C82G A111U A120U C169U U176G, the reverse-splicing fitness was determined as 0.00182.

For C82G A111U A120U C169G U176A, the reverse-splicing fitness came out at 0.00374.

In the case of C82G A111U A120U C169G U176G, the reverse-splicing fitness was found to be 0.00175.

With C82G A111U A120U C169G U176C, the reverse-splicing fitness is 0.00385.

Turning to C82G A120C A145C C150A C169G U176G, the reverse-splicing fitness amounted to 0.0056.

Turning to C82G A120C A145C C150A C169G U176C, the reverse-splicing fitness came to 0.0164.
